Reference: patent publication US11713337B2, “Peptide, compositions and method for delivery of agents into cells and tissues” (priority 2019, dated 2023)
Several values for one entry are separate records, joined by “and”; a condition that tells them apart may be missing. Equal entries are not always repeated. Entries after “also recorded” stand apart in the source; their conditions may differ. Peptide text beside a SMILES is read from it. * marks the point of attachment. 5FAM = O=C1OC2(c3ccc(O)cc3Oc3cc(O)ccc32)c2ccc(C(=O)*)cc21

Experiments:
retina [1] = assay: Retinal penetration of FAM-labeled Nuc1 after intravitreal injection
Procedure: Intravitreal and subretinal injections: Mice were anesthetized by injecting intraperitoneally a cocktail mixture containing Ketamine (100 mg/kg, Phoenix™, St Joseph, Mo.) and Xylazine (10 mg/kg, Lloyed, Shenandoah, Iowa) followed by topical application of 0.5% proparacaine hydrochloride (Akorn Inc., Lake Forest, Ill., USA) for topical analgesia to the cornea. Mice were kept warm during anesthesia. lntravitreal and subretinal injections were performed using a 32-gauge needle and a 5μI glass syringe, as previously described (Cashman et al., 2015). […] Four hours post injection (as indicated), eyes were enucleated and fixed in 4% paraformaldehyde. […] Retinal cryosections were taken using a Micron 550 cryostat.
Four hours post injection, eyes of these mice were enucleated and fixed in 4% paraformaldehyde. Retinal cryosections were generated using a Micron 550 cryostat and sections were imaged using a fluorescent microscope.

retina [2] = details: 1 μg dexamethasone alone or with 1 μg Nuc1
Procedure: We hypothesized that Nuc1 may facilitate penetration of steroids into tissues, enabling a steroid to be applied in a reduced dosage without loss of efficacy. To test this hypothesis, we injected either 1 μg fluorescently labeled dexamethasone alone or fluorescently labeled dexamethasone in combination with 1 μg Nuc1.

[3] = system: floxed stop tdTomato reporter in retina; assay: Cre recombinase uptake and gene editing in Ai9 reporter mice (tdTomato); assay type: in vivo; details: 4 micrograms Cre recombinase alone or with 1 microgram Nuc1, intravitreal
Text: In these mice, a reporter tdTomato transgene expression cassette is turned on when a foxed stop codon is excised by Cre recombinase. […] The observation that Cre recombinase can enter cells by itself was surprising. However, the above assay is highly sensitive due to the fact that one gene editing event is substantially amplified through the continuous production of protein that accumulates in the cell.

[4] = system: alkali burn of the cornea; assay: Alkali burn of the cornea: staining of corneal cryosections (isolectin, SMA, CD45, F4/80, TGF-β1, activated Caspase-3); assay type: in vivo, C57BL/6 mice
Text: The filter paper was gently removed and the cornea was rinsed with phosphate buffered saline (PBS) 10 times. […] The treatments were applied topically once a day for seven days. After 7 days, mice were sacrificed by CO2 inhalation. Eyes were enucleated and fixed in 4% paraformaldehyde. Corneal cryosections were taken using a Micron 550 cryostat and stained for α-actin, a marker of fibrosis.
(§1) Mice were kept warm during anesthesia. Alkali burn was induced in the cornea by applying 2 mm filter paper discs soaked with 1N sodium hydroxide (NaOH) on the central cornea of the right eye for 30 seconds. The filter paper was gently removed from the cornea and the cornea rinsed with phosphate buffered saline (PBS) 10 times to clear residual NaOH. The left eye was left unexposed to NaOH and served as a control. […] The treatments were applied topically once a day for seven days. Images of the eye were captured on day 7 using a digital camera. After 7 days, mice were sacrificed by CO2 inhalation, followed by cervical dislocation. The eyes were enucleated and fixed in 4% paraformaldehyde. Corneal cryosections were taken using a Micron 550 cryostat.
Immunochemistry: Cryosections were air dried for 10 minutes and washed in PBS for 5 minutes. They were subsequently incubated in 6% normal goat serum and PBS-Triton for 1 hour at room temperature for permeabilization and blocking. The slides were incubated with FITC-conjugated isolectin or with primary antibody against one of following: α-smooth muscle actin (SMA), glial fibrillary acidic protein (GFAP), CD45, transforming growth factor beta (TGF-β1), F4/80, transforming growth factor beta (TGF-β1) (Abcam; ab92486), or activated Caspase-3. This incubation was performed at 4° C. in a moist chamber overnight. For samples treated with antibodies, detection was performed by incubation with a secondary Cy3-conjugated goat anti-rabbit/anti-mouse antibody (Jackson lmmunoResearch, West Grove, Pa.) for 1 hour at room temperature. The slides were washed three times with PBS and mounted in Vectashield anti fade mounting medium containing DAPI to counterstain the nuclei. Imaging of stained sections was performed using an Olympus IX51 microscope and appropriate filters. Images were captured using a Retiga 2000r camera. The intensity of the antibody specific staining was quantified using ImageJ software.

[5] = system: alkali burn of the cornea; assay: Alkali burn of the cornea: TUNEL assay on corneal cryosections; assay type: in vivo, C57BL/6 mice; details: 7 days topical treatment
Text: as §1
TUNEL assay: To detect cell death, the terminal deoxynucleotidyl transferase-mediated dUTP-biotin nick-end labeling (TUNEL) method was performed on corneal cryosections using the In Situ Death Detection Kit, TMR Red (Sigma), as per the manufacturer's instructions. The sections were imaged, as described above, and images used for quantification of TUNEL positive cells using ImageJ (FIJI version and plug in), as previously described.

[6] = system: alkali burn of the cornea; assay: Alkali burn of the cornea: corneal opacity and H+E histology; assay type: in vivo, C57BL/6 mice
Text: as §1
Histopathology: The eyes were harvested for histology 7 days post-treatment and fixed in Hartman's fixative. After 48 hours, the specimens were dehydrated through alcohol steps and embedded in paraffin. […] sections were cut at different planes, including the optic nerve region, and stained with Hematoxylin & Eosin (H&E). Imaging of stained sections was performed using an Olympus BX51 microscope using a Retiga 2000r camera.
On day 7, mice were sacrificed for imaging of corneas (FIG. 14A). […] Mice were scored for clinical opacity based on method described by Anderson et al.. […]

[7] = system: alkali burn of the cornea; assay: Alkali burn of the cornea: multiplex ELISA of cytokines in corneal lysates; assay type: in vivo, C57BL/6 mice; details: 7 days topical treatment, Bioplex
Text: as §1
Multiplex ELISA: Multiplex ELISA was performed to detect IL-6, IL-17, IL-10, IFN-G, TNF-α, and IL-1β using Bio-plex pro mouse cytokineTh17 A 6 plex group I (Bio-Rad, M6000007NY), as per the manufacturer's instructions. Briefly, alkali burn was induced as described above. Mice were sacrificed on day 7 and corneas were extracted. The corneas were dissected into small pieces and stored at −80° C. in Bioplex cell lysis buffer. Two corneas were pooled together for each sample and 50 μl of the lysate was used in duplicate for each sample. The samples were run using the Bio plex manager MP software and the data was analyzed using Bioplex manager 6.0.

[8] = system: gliosis in the retina after alkali burn; assay: Alkali burn of the cornea: GFAP staining of retina (gliosis); assay type: in vivo, C57BL/6 mice; details: topical to cornea for 7 days after alkali burn
Text: as §1
Immunochemistry: Cryosections were air dried for 10 minutes and washed in PBS for 5 minutes. They were subsequently incubated in 6% normal goat serum and PBS-Triton for 1 hour at room temperature for permeabilization and blocking. The slides were incubated with FITC-conjugated isolectin or with primary antibody against one of following: α-smooth muscle actin (SMA), glial fibrillary acidic protein (GFAP), CD45, transforming growth factor beta (TGF-β1), F4/80, transforming growth factor beta (TGF-β1) (Abcam; ab92486), or activated Caspase-3. […] The intensity of the antibody specific staining was quantified using ImageJ software. […]

Molecule: O=C(O)c1ccc2c(c1)C1(OC2=O)c2ccc(O)cc2Oc2cc(O)ccc21 [6-FAM, reference compound]
- localization in retina (fluorescence microscopy of cryosections) (retina [1]; 1 ug in 1 ul H2O intravitreal, four hours post injection, adult mice): unable to penetrate retina

Molecule: CC[C@H](C)[C@H](NC(=O)[C@H](CO)NC(=O)[C@H](C)NC(=O)c1ccc2c(c1)C(=O)OC21c2ccc(O)cc2Oc2cc(O)ccc21)C(=O)N[C@@H](CCCCN)C(=O)N[C@H](C(=O)N[C@@H](C)C(=O)N[C@H](C(=O)N[C@@H](CO)C(=O)N[C@@H](C)C(=O)NCC(=O)NCC(=O)N[C@@H](CC(=O)O)C(=O)N[C@@H](CCCCN)C(=O)N1CCC[C@H]1C(=O)N[C@@H](CCCNC(=N)N)C(=O)N[C@@H](CCCNC(=N)N)C(=O)O)C(C)C)C(C)C [FAM labeled Nuc1] (5FAM-ASIKVAVSAGGDKPRR-OH)
- localization in retina (fluorescence microscopy of cryosections) (retina [1]; mouse, in vivo): localized to all layers of the retina

Molecule: C[C@@H]1C[C@H]2[C@@H]3CCC4=CC(=O)C=C[C@]4(C)[C@@]3(F)[C@@H](O)C[C@]2(C)[C@@]1(O)C(=O)CO [dexamethasone]
- uptake of fluorescently labeled dexamethasone into the retina (retina [2]): taken up into the retina

B1: Cre recombinase: Cre recombinase protein, approximately 38 Kd (protein, UniProt P06956 1-343, looked up)
Recombinase cre: MSNLLTVHQNLPALPVDATSDEVRKNLMDMFRDRQAFSEHTWKMLLSVCRSWAAWCKLNNRKWFPAEPEDVRDYLLYLQARGLAVKTIQQHLGQLNMLHRRSGLPRPSDSNAVSLVMRRIRKENVDAGERAKQALAFERTDFDQVRSLMENSDRCQDIRNLAFLGIAYNTLLRIAEIARIRVKDISRTDGGRMLIHIGRTKTLVSTAGVEKALSLGVTKLVERWISVSGVADDPNNYLFCRVRKNGVAAPSATSQLSTRALEGIFEATHRLIYGAKDDSGQRYLAWSGHSARVGAARDMARAGVSIPEIMQAGGWTNVNIVMNYIRNLDSETGAMVRLLEDGD
- tdTomato positive Muller cells [3]: almost no Muller cells expressing tdTomato
- tdTomato reporter expression in retina [3]: detectable tdTomato expression

B2: decorin: human recombinant decorin, a small leucine rich proteoglycan (protein, UniProt P07585 31-359, looked up)
Decorin: DEASGIGPEVPDDRDFEPSLGPVCPFRCQCHLRVVQCSDLGLDKVPKDLPPDTTLLDLQNNKITEIKDGDFKNLKNLHALILVNNKISKVSPGAFTPLVKLERLYLSKNQLKELPEKMPKTLQELRAHENEITKVRKVTFNGLNQMIVIELGTNPLKSSGIENGAFQGMKKLSYIRIADTNITSIPQGLPPSLTELHLDGNKISRVDAASLKGLNNLAKLGLSFNSISAVDNGSLANTPHLRELHLDNNKLTRVPGGLAEHKYIQVVYLHNNNISVVGSSDFCPPGHNTKKASYSGVSLFSNPVQYWEIQPSTFRCVYVRSAIQLGNYK
- CD45 staining of cornea, images (leukocytes) ([4]; 7 days topical treatment): reduction in CD45 and F4/80 staining in the anterior region of the stroma
- F4/80 staining of cornea, images (macrophages) ([4]; 7 days topical treatment): reduction in CD45 and F4/80 staining in the anterior region of the stroma
- SMA staining of cornea, images (fibrosis) ([4]; 7 days topical treatment): modest reduction of SMA staining
- TGF-β1 expression in cornea (antibody staining) ([4]; 7 days topical treatment): lower expression of TGF-β1
- activated Caspase-3 staining of cornea, images, relative to PBS treated mice ([4]; 7 days topical treatment): considerable reduction in the staining for activated Caspase-3 in the stroma and endothelium
- isolectin (GSL I) staining of cornea, images (neovascularization) ([4]; 7 days topical treatment): obvious reduction in isolectin staining
- reduction in CD45 staining / CD45-positive cells relative to corneas treated with PBS ([4]; 7 days topical treatment): 39.6%
- reduction in F4/80 staining relative to corneas treated with PBS ([4]; 7 days topical treatment): no significant reduction
- reduction in isolectin staining relative to PBS treated corneas (quantification) ([4]; 7 days topical treatment): not significantly different to that of PBS treated corneas
- reduction in activated Caspase-3 staining (quantification of fluorescent signal) ([4]; 7 days topical treatment, reference PBS treated (implied)): 51.5%
- reduction in α-actin (SMA) staining relative to PBS (fibrosis) ([4]; topical 0.5 μg decorin with or without 0.5 μg Nuc1 once a day for seven days, from 24 hours after NaOH): 33.3% and 33.25%
- TUNEL staining of cornea, images (cell death) [5]: considerable reduction in TUNEL staining in the corneal stroma
- reduction in TUNEL staining relative to PBS (quantification) [5]: 44.8%
- corneal histology (H+E transverse sections) ([6]; 7 days topical treatment, relative to PBS): increase in thickness of the epithelium; also recorded: vacuolization was apparent
- clinical opacity score (method of Anderson et al.) ([6]; topical once daily for 7 days from 24 hours post alkali burn, PBS scored 4): 2.8
- IFN-G expression in corneal lysate relative to PBS treated mice [7]: reduction in expression
- IL-1β expression in corneal lysate [7]: increased expression
- IL-6 expression in corneal lysate relative to PBS treated mice [7]: reduction in expression
- IL-17 expression in corneal lysate relative to PBS treated mice [7]: reduction in expression
- TNF-α expression in corneal lysate relative to PBS treated mice [7]: reduction in expression
- GFAP staining of retina (Muller cell activation, gliosis) [8]: reduced staining relative to the retinas of mice treated with PBS
